Test results: patent publication US20240209044

T1: ZAP, zeta activating peptide, the PKCzeta uORF-encoded peptide
T1 chain: MGPREARLQVHQLQTAGP

T2: ZIP, zeta inhibitory peptide, the pseudo-substrate peptide of the PKCzeta regulatory domain
T2 chain: SIYRRGARRWRKL

B1: PKCepsilon, HA-tagged, immunoprecipitated from HEK293T lysate (protein)
chain: MVVFNGLLKIKICEAVSLKPTAWSLRHAVGPRPQTFLLDPYIALNVDDSRIGQTATKQKTNSPAWHDEFVTDVCNGRKIELAVFHDAPIGYDDFVANCTIQFEELLQNGSRHFEDWIDLEPEGRVYVIIDLSGSSGEAPKDNEERVFRERMRPRKRQGAVRRRVHQVNGHKFMATYLRQPTYCSHCRDFIWGVIGKQGYQCQVCTCVVHKRCHELIITKCAGLKKQETPDQVGSQRFSVNMPHKFGIHNYKVPTFCDHCGSLLWGLLRQGLQCKVCKMNVHRRCETNVAPNCGVDARGIAKVLADLGVTPDKITNSGQRRKKLIAGAESPQPASGSSPSEEDRSKSAPTSPCDQEIKELENNIRKALSFDNRGEEHRAASSPDGQLMSPGENGEVRQGQAKRLGLDEFNFIKVLGKGSFGKVMLAELKGKDEVYAVKVLKKDVILQDDDVDCTMTEKRILALARKHPYLTQLYCCFQTKDRLFFVMEYVNGGDLMFQIQRSRKFDEPRSRFYAAEVTSALMFLHQHGVIYRDLKLDNILLDAEGHCKLADFGMCKEGILNGVTTTTFCGTPDYIAPEILQELEYGPSVDWWALGVLMYEMMAGQPPFEADNEDDLFESILHDDVLYPVWLSKEAVSILKAFMTKNPHKRLGCVASQNGEDAIKQHPFFKEIDWVLLEQKKIKPPFKPRIKTKRDVNNFDQDFTREEPVLTLVDEAIVKQINQEEFKGFSYFGEDLMP
B2: PKCtheta, HA-tagged, immunoprecipitated from HEK293T lysate (protein)
chain: MSPFLRIGLSNFDCGSCQSCQGEAVNPYCAVLVKEYVESENGQMYIQKKPTMYPPWDSTFDAHINKGRVMQIIVKGKNVDLISETTVELYSLAERCRKNNGKTEIWLELKPQGRMLMNARYFLEMSDTKDMNEFETEGFFALHQRRGAIKQAKVHHVKCHEFTATFFPQPTFCSVCHEFVWGLNKQGYQCRQCNAAIHKKCIDKVIAKCTGSAINSRETMFHKERFKIDMPHRFKVYNYKSPTFCEHCGTLLWGLARQGLKCDACGMNVHHRCQTKVANLCGINQKLMAEALAMIESTQQARCLRDTEQIFREGPVEIGLPCSIKNEARPPCLPTPGKREPQGISWESPLDEVDKMCHLPEPELNKERPSLQIKLKIEDFILHKMLGKGSFGKVFLAEFKKTNQFFAIKALKKDVVLMDDDVECTMVEKRVLSLAWEHPFLTHMFCTFQTKENLFFVMEYLNGGDLMYHIQSCHKFDLSRATFYAAEIILGLQFLHSKGIVYRDLKLDNILLDKDGHIKIADFGMCKENMLGDAKTNTFCGTPDYIAPEILLGQKYNHSVDWWSFGVLLYEMLIGQSPFHGQDEEELFHSIRMDNPFYPRWLEKEAKDLLVKLFVREPEKRLGVRGDIRQHPLFREINWEELERKEIDPPFRPKVKSPFDCSNFDKEFLNEKPRLSFADRALINSMDQNMFRNFSFMNPGMERLIS
B3: PKCzeta, HA-tagged, immunoprecipitated from HEK293T lysate (protein)
chain: MPSRTGPKMEGSGGRVRLKAHYGGDIFITSVDAATTFEELCEEVRDMCRLHQQHPLTLKWVDSEGDPCTVSSQMELEEAFRLARQCRDEGLIIHVFPSTPEQPGLPCPGEDKSIYRRGARRWRKLYRANGHLFQAKRFNRRAYCGQCSERIWGLARQGYRCINCKLLVHKRCHGLVPLTCRKHMDSVMPSQEPPVDDKNEDADLPSEETDGIAYISSSRKHDSIKDDSEDLKPVIDGMDGIKISQGLGLQDFDLIRVIGRGSYAKVLLVRLKKNDQIYAMKVVKKELVHDDEDIDWVQTEKHVFEQASSNPFLVGLHSCFQTTSRLFLVIEYVNGGDLMFHMQRQRKLPEEHARFYAAEICIALNFLHERGIIYRDLKLDNVLLDADGHIKLTDYGMCKEGLGPGDTTSTFCGTPNYIAPEILRGEEYGFSVDWWALGVLMFEMMAGRSPFDIITDNPDMNTEDYLFQVILEKPIRIPRFLSVKASHVLKGFLNKDPKERLGCRPQTGFSDIKSHAFFRSIDWDLLEKKQALPPFQPQITDDYGLDNFDTQFTSEPVQLTPDDEDAIKRIDQSEFEGFEYINPLLLSTEESV

Key:
[1] = biological target: T1, ZAP, zeta activating peptide, the …
[2] = biological target: T2, ZIP, zeta inhibitory peptide, the …

| Protein | phosphorylation of MBP by PKC isoforms (32P-γATP in vitro kinase assay) [1] | PKCzeta phosphorylation of MBP (32P-γATP in vitro kinase assay) [1] | kinase activity (phosphorylation of MBP, 32P-γ-ATP in vitro kinase assay, dose series of peptide) [1] | kinase activity (phosphorylation of MBP, 32P-γ-ATP in vitro kinase assay, dose series of peptide) [2] |
| --- | --- | --- | --- | --- |
| B1 | enhanced the phosphorylation of PKC isoforms of the novel PKC sub-family of PKCzeta, PKCdelta and PKCepsilon | – | – | – |
| B2 | the peptide had no effect on the phosphorylation of MBP by the PKC isoforms PKCeta (PKCη), PKCtheta (PKCθ), PKCgamma (PKCγ), and PKCalpha (PKCα) | – | – | – |
| B3 | enhanced the phosphorylation of PKC isoforms of the novel PKC sub-family of PKCzeta, PKCdelta and PKCepsilon | did not inhibit PKCzeta phosphorylation of MBP, rather significantly increased the phosphorylation on MBP | the ZAP peptide activates the kinase activity of both PKCzeta and PKMzeta | the known PS ZIP peptide inhibits their activity |
